These results are taken from patent publication US20140105889A1 (published 2014).

As a reminder, the Kd is a measure of binding affinity in units of concentration. A high value points to a looser complex.

Changes are numbered by the printed parent chain. Like-named read-outs stand apart in the source and are kept apart here.

Experiment [1] concerns the target T1, human FcγRIIb (human, UniProt P31994 43-217, limits assumed).
T1 construct: also called FcγIIB; hFcgRIIb
T1 sequence: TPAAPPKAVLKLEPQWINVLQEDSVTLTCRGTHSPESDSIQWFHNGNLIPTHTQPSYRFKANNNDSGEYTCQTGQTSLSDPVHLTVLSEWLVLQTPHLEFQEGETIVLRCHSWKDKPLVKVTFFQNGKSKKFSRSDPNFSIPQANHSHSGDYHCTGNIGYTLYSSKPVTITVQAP
As to the kind of experiment: SPR KD for FcγRIIb of parent IL6R-B3/IL6R-L divided by that of this variant.

In experiment [2] the target is T1, human FcγRIIb. As to the kind of experiment: ratio of this variant's SPR KD for FcγRIIaR to its KD for FcγRIIb.
Another experiment concerns the target T2, human FcγRIIa type R (human, UniProt P12318 36-217).
T2 construct: also called FcγRIIaR; FcγRIIa(R)
T2 chain: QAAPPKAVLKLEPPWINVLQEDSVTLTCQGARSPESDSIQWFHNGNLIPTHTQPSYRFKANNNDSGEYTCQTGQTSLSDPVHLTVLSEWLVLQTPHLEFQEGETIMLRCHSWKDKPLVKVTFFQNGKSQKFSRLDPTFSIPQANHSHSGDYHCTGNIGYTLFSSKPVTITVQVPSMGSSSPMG
In words: SPR (Biacore), captured antibody, FcγR as analyte, 25 C. (In general: Surface plasmon resonance follows binding to a sensor surface in real time, without labels.)

In experiment [3] the target is T1, human FcγRIIb. In words: ratio of this variant's SPR KD for FcγRIIaH to its KD for FcγRIIb.
The target in experiment [4] is T3, FcγRIIb (human, UniProt P31994 43-217, limits assumed).
T3 construct: Soluble analyte in Biacore; also called FcgRIIb; FcγIIB
T3 sequence: T1 sequence
In words: SPR (Biacore); ratio against the parent IL6R-B3/IL6R-L.

The target of another experiment is T4, FcγRIIa type H (human, UniProt P12318 36-217).
T4 construct: Soluble analyte in Biacore; also called FcγRIIaH; FcγRIIa(H)
T4 sequence: T2 chain with R133H
In words: SPR (Biacore), antibody captured on chip, FcγR as analyte, method of Example 14.

The target of another experiment is T5, FcγRIIIa type V (human, UniProt P08637 17-208, limits assumed).
T5 construct: Soluble analyte in Biacore; also called FcγRIIIaV; FcγRIIIa(V)
The experiment is described as above.

Experiment [5] deals with T3, FcγRIIb. The experiment is described as above.
Experiment [6] has as its target T6, human FcRn (soluble human FcRn complexed with beta2-microglobulin) (human, UniProt P61769 21-119).
T6 construct: Soluble human FcRn complexed with beta2-microglobulin; also called hFcRn
As to the kind of experiment: Biacore SPR, antibody captured on Protein L, human FcRn analyte, pH 7.0.

The target of experiment [7] is T6, human FcRn (soluble human FcRn …). The description is as above. This is another data set of the same source.
Experiment [8] has as its target T7, human FcRn (soluble human FcRn complexed with beta2-microglobulin) (human, UniProt P61769 21-119).
T7 construct: also called hFcRn
As to the kind of experiment: SPR (Biacore), pH 7.0, 25 C, antibody captured by Protein L, human FcRn as analyte.

Experiment [9] addresses T8, human FcRn (soluble human FcRn complexed with β2-microglobulin) (human, UniProt P61769 21-119).
T8 construct: also called hFcRn
In words: SPR (Biacore), Protein L capture, hFcRn analyte, pH 7.0.

The target in experiment [10] is T6, human FcRn (soluble human FcRn …). In words: Biacore SPR, antibody captured on Protein L, human FcRn analyte, pH 7.0. This is another data set of the same source.
In experiment [11] the target is T8, human FcRn (soluble human FcRn …). As to the kind of experiment: SPR (Biacore), Protein L capture, hFcRn analyte, pH 7.0. This is another data set of the same source.
For the next experiment, the target named is T9, human FcRn (human).
T9 construct: also called hFcRn; soluble human FcRn complexed with β2-microglobulin
As to the kind of experiment: SPR (Biacore), pH 7.0, 25 C, antibody captured by Protein L, human FcRn as analyte.

T9 sequence (chain, as listed by the source limits assumed, chain 1 of 2): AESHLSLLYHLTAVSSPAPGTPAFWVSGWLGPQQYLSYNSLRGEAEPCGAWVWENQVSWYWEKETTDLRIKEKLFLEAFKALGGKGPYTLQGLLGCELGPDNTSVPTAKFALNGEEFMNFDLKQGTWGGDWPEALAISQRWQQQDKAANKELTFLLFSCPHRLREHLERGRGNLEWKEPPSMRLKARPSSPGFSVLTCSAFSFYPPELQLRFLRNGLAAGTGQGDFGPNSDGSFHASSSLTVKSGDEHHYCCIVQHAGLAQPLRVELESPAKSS
T9 sequence (P61769 21-119 limits assumed, chain 2 of 2): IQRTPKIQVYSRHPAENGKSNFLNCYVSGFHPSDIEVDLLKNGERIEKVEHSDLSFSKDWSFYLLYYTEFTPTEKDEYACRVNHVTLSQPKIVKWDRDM
T8 sequence (chain, as listed by the source limits assumed, chain 1 of 2): as the sequence (chain, as listed by the source limits assumed, chain 1 of 2) above
T8 sequence (P61769 21-119 limits assumed, chain 2 of 2): as the sequence (P61769 21-119 limits assumed, chain 2 of 2) above
T5 sequence (P08637 other isoform, or with tags, fused parts or gaps limits assumed): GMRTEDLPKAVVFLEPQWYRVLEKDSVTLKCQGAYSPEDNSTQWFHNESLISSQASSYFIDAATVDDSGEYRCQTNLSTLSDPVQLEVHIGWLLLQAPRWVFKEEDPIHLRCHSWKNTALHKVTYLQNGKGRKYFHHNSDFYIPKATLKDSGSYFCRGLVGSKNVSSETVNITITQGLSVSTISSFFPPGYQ

B1: IL6R-BP129/IL6R-L (antibody, human IgG1)
heavy: QVQLQESGPGLVKPSETLSLTCAVSGHSISHDHAWSWVRQPPGEGLEWIGFISYSGITNYNPSLQGRVTISRDNSKNTLYLQMNSLRAEDTAVYYCARSLARTTAMDYWGEGTLVTVSSASTKGPSVFPLAPSSKSTSGGTAALGCLVKDYFPEPVTVSWNSGALTSGVHTFPAVLQSSGLYSLSSVVTVPSSSLGTQTYICNVNHKPSNTKVDKKVEPKSCDKTHTCPPCPAPDLLGGDSVFLFPPKPKDTLMISRTPEVTCVVVDVSHEDPEVKFNWYVDGVEVHNAKTKPREEQDNSTYRVVSVLTVLHQDWLNGKEYKCKVSNKALPKPIEKTISKAKGQPREPQVYTLPPSRDELTKNQVSLTCLVKGFYPSDIAVEWESNGQPENNYKTTPPVLDSDGSFFLYSKLTVDKSRWQQGNVFSCSVMHEALHNHYTQESLSLSP
light: DIQMTQSPSSLSASVGDRVTITCRASQDISSYLNWYQQKPGKAPKLLIYYTSRLHSGVPSRFSGSGSGTDFTFTISSLQPEDIATYYCQQGNTLPYTFGQGTKVEIK
notes: copies: 2 + 2
Consider B1, for which the “KD(IIb) of the parent polypeptide/KD(IIb) of the altered polypeptide” value (“KD(IIb)” below) with human FcγRIIb [1] came to 8. Also, the “KD (IIaR)/KD (IIb)” value with human FcγRIIb [2] amounted to 29.3. The same molecule gave a Kd with human FcγRIIa type R of 1.5 µM. In addition, in the experiment with human FcγRIIb [3], the “KD (IIaH)/KD (IIb)” value worked out at 77.5.

B2: IL6R-BP212/IL6R-L (antibody, human IgG1)
heavy: B1 heavy with H270D, P273G, K332R
light: B1 light
notes: Anti-human IL-6 receptor IgG1 Fc variant
As to B2, the “KD(IIb)” value in the experiment with FcγRIIb [4] was determined as 16.7 fold. Moreover, the dissociation constant (Kd) with FcγRIIa type H was determined as 2.2 µM.

B3: IL6R-BP208/IL6R-L (antibody, human IgG1)
heavy: B1 heavy with G239D, H270D, P273G, D298Y, K332R
light: B1 light
notes: as for B2
For the molecule B3, the Kd with FcγRIIa type H came to 8.3 µM; with FcγRIIIa type V, 55 µM.

B4: IL6R-BP209/IL6R-L (antibody, human IgG1)
heavy: B1 heavy with D235E, G239D, H270D, P273G, D298Y, K328A, K332R
light: B1 light
notes: as for B2
B4: the “KD(IIb)” value with FcγRIIb [4] is 80.4 fold. Also, the Kd with FcγRIIIa type V is 41 µM; with FcγRIIb [5] it was 5.1 µM.

B5: IL6R-BP213/IL6R-L (antibody, human IgG1)
heavy: B1 heavy with H270D, P273G, D298Y, K332R
light: B1 light
notes: as for B2
Turning to B5, in the experiment with FcγRIIb [4], the “KD(IIb)” value came out at 17.5 fold. The results for the dissociation constant (Kd) in the experiment with FcγRIIIa type V and with FcγRIIb [5] were 63 µM and 0.16 µM, respectively.

B6: IL6R-BP205/IL6R-L (antibody, human IgG1)
heavy: B1 heavy with P273G, K332R
light: B1 light
notes: as for B2
B6: the Kd worked out at 26 µM with FcγRIIa type H and 65 µM in the experiment with FcγRIIIa type V.

B7: IgG1-F327 (antibody, name in EU numbering)
heavy: QVQLQESGPGLVKPSETLSLTCAVSGHSISHDHAWSWVRQPPGEGLEWIGFISYSGITNYNPSLQGRVTISRDNSKNTLYLQMNSLRAEDTAVYYCARSLARTTAMDYWGEGTLVTVSSASTKGPSVFPLAPSSKSTSGGTAALGCLVKDYFPEPVTVSWNSGALTSGVHTFPAVLQSSGLYSLSSVVTVPSSSLGTQTYICNVNHKPSNTKVDKKVEPKSCDKTHTCPPCPAPELLGGPKVFLFPPKPKDTLYISREPEVTCVVVDVSHEFPEVKFNWYVDGVEVHNAKTKPREEQYNSTYRVVSVLQVLHADWLNGKEYKCKVSNKALPAPIEKTISKAKGQPREPQVYTLPPSRDELTKNQVSLTCLVKGFYPSDIAVEWESNGQPENNYKTTPPVLDSDGSFFLYSKLTVDKSRWQQGNVFSCSVMHEALHYHYTQKSLSLSP
light: not shown
notes: Fc variant of VH3-IgG1; copies: 2 + 2
B7: the equilibrium dissociation constant (Kd) in experiment [6] was found to be 0.065 µM.

B8: IgG1-F419 (antibody, name in EU numbering)
heavy: B7 heavy with K241S, E258T, F272D, Q309A, A313H, K362H
light: not shown
notes: as for B7
B8 displayed a dissociation constant (Kd) in [7] of 0.16 µM.

B9: IgG1-F1017 (antibody)
heavy: B7 heavy with L237R, T252V, E258T, F272D, N288E, V310P, Y438V
light: not shown
In experiment [8], B9 had a Kd of 0.0042 µM.

B10: IgG1-F329 (antibody, name in EU numbering)
heavy: B7 heavy with E258T, N288E, Q309T, V310P, A313Q
light: not shown
notes: as for B7
With B10, in [6], binding was put at a Kd of 0.012 µM.

B11: IgG1-F450 (antibody, name in EU numbering)
heavy: B7 heavy with E258T, F272D, Q309P, L311E, A313Q, N327G, M430Y
light: not shown
notes: copies: 2 + 2
As to B11, the Kd in [9] stood at 0.52 µM.

B12: IgG1-F1014 (antibody, name in EU numbering)
heavy: B7 heavy with L237R, T252V, E258T, F272D, V310P
light: not shown
In the case of B12, in experiment [8], the Kd is 0.032 µM.

B13: IgG1-F357 (antibody, name in EU numbering)
heavy: B7 heavy with Q309T, V310P, A313Q, N327G, M430I
light: not shown
notes: as for B7
In turn, B13 returned a Kd in experiment [6] of 0.016 µM.

B14: IgG1-F393 (antibody, name in EU numbering)
heavy: B7 heavy with E258T, F272D, N288E, Q309T, V310P, A313Q
light: not shown
notes: as for B7
B14 returned a Kd in experiment [10] of 0.012 µM.

B15: IgG1-F492 (antibody, name in EU numbering)
heavy: B7 heavy with K241S, Y254M, E258T, P259V, F272D, V307A, Q309A, A313Q, N327G, M430L
light: not shown
notes: copies: 2 + 2
Molecule B15 came in with a Kd in [11] of 0.098 µM.

B16: IgG1-F398 (antibody, name in EU numbering)
heavy: B7 heavy with E258T, N288E, V310P, M430I
light: not shown
notes: as for B7
In experiment [10], B16 showed a Kd of 0.0044 µM.

B17: IgG1-F445 (antibody, name in EU numbering)
heavy: B7 heavy with K241S, Y254M, E258T, P259A, F272D, A313H, M430L
light: not shown
notes: copies: 2 + 2
For the molecule B17, binding in experiment [9] was put at a Kd of 0.062 µM.

B18: F1211 (antibody, human IgG1, kappa, name in EU numbering)
heavy: B7 heavy with K241S, L253H, E258T, F272D, Q309T, A313Q, Y438V
light: not shown
notes: copies: 2 + 2
Consider B18, for which binding with human FcRn was characterised by a dissociation constant (Kd) of 1.23 µM.

B19: IgG1-F529 (antibody, name in EU numbering)
heavy: B7 heavy with K241S, Y254M, E258T, P259T, F272D, A313Q, M430F
light: not shown
notes: copies: 2 + 2
On to B19, for which, in experiment [11], the affinity, expressed as Kd, was 0.025 µM.

B20: IgG1-F382 (antibody, name in EU numbering)
heavy: B7 heavy with K241S, Y254M, E258T, P259V, F272D, V307A, Q309A, A313Q, M430L
light: not shown
notes: as for B7
With B20, the Kd in experiment [10] came to 0.087 µM.

B21: IgG1-F527 (antibody, name in EU numbering)
heavy: B7 heavy with K241S, Y254M, E258T, P259V, F272D, V310P, A313Q, N327G, M430Y
light: not shown
notes: copies: 2 + 2
In turn, B21 had a Kd in [11] of 0.0094 µM.

B22: IgG1-F462 (antibody, name in EU numbering)
heavy: B1 heavy with D235E, D240P, P259A, D298Y, V310P, N327G, K332A, M430L, N436Y, E441K
light: not shown
notes: copies: 2 + 2
Molecule B22 displayed a Kd in [9] of 0.085 µM.

B23: IgG1-F1019 (antibody, name in EU numbering)
heavy: B1 heavy with D235E, T252V, M254Y, D298Y, N327G, K332A, N436Y, E441K
light: not shown
Turning to B23, binding in experiment [8] was put at a Kd of 0.34 µM.

B24: F1192 (antibody, name in EU numbering)
heavy: B7 heavy with K241S, E258T, F272D, Q309T, A313Q, Y438V, T439G, Q440R, S442E
light: not shown
notes: copies: 2 + 2
Take B24: the equilibrium dissociation constant (Kd) in the experiment with human FcRn was 0.127 µM.

B25: F1189 (antibody, name in EU numbering)
heavy: B7 heavy with K241S, E258T, F272D, Q309T, A313Q, H435D, Y438V, Q440R, S442E
light: not shown
notes: copies: 2 + 2
Take B25: in the experiment with human FcRn, the Kd amounted to 0.157 µM.

B26: IgG1-F434 (antibody, name in EU numbering)
heavy: B7 heavy with K241S, Y254M, E258T, P259V, F272D, N327G, M430Y
light: not shown
notes: as for B7
Molecule B26 gave a Kd in experiment [7] of 0.02 µM.

B27: IgG1-F421 (antibody, name in EU numbering)
heavy: B7 heavy with K241S, E258T, F272D, Q309A, A313H, M430A
light: not shown
notes: as for B7
B27 yielded a Kd in experiment [7] of 0.13 µM.
